Key:
[1] = system: human umbilical vein endothelial cells (HUVECs); experiment: In vitro human endothelial cell angiogenesis assay (capillary tube formation on ECMATRIX); type: cell-based
Source text: The angiogenesis assay is commercially available from Chemicon International, Inc. (Temecula, Calif.), and involves growing human umbilical vein endothelial cells (HUVECs) on a proprietary matrix, followed by assessing angiogenesis on this matrix by counting new branch points in sprouting endothelial cells.
A semi-quantitative assay for in vitro angiogenesis was utilized. Human umbilical vein endothelial cells (HUVEC, Clonetics Corp., Walkersville, Md.) were maintained in 25 cm^2 flasks in EGM-2 media (Clonetics Corp.) supplemented with 2% fetal bovine serum, gentamicin, amphotericin-B, hEGF, hydrocortisone, VEGF, hFGF-B, R^3-IGF-1, ascorbic acid and heparin. For assay, a 48-well tissue culture plate was coated with 100 μl of ECMATRIX (Chemicon International, Inc., Temecula, Calif.) followed by incubation at 37° C. for one hour. Approximately 5×10^4 cells were then seeded onto the surface of the polymerized matrix. Varying concentrations of full-length human TFPI-2, diluted in EGM-2 media and filtered, were added to the wells and plate was placed in 37° C.-humidified CO2 incubator. Each treatment was performed in duplicate wells. Separately, VEGF was used as a positive control. The three-dimensional organization of cells was examined every hour under an inverted photomicroscope. The capillary tube branch point formation was counted in each well following eight hours of incubation. For each concentration, eight randomly chosen areas under 250× magnified field were observed. The results are expressed as number of branching points (mean±SEM) and the differences between each mean value was tested by one way analysis of variance (ANOVA). Statistically p-value <0.05 was accepted.
To examine the effect of full-length human TFPI-2 on morphogenesis (capillary-like tube formation) of endothelial cells, HUVECs were seeded on the matrigel and treated with full-length human TFPI-2 (0.2 μM-5 μM).

[2] = system: trypsin; settings: relative to TFPI-2; cited from earlier work
[3] = molecular target: plasmin (Homo sapiens, UniProt P00747); settings: relative to TFPI-2; cited from earlier work
Chain of plasmin (P00747 581-810 limits assumed, species assumed): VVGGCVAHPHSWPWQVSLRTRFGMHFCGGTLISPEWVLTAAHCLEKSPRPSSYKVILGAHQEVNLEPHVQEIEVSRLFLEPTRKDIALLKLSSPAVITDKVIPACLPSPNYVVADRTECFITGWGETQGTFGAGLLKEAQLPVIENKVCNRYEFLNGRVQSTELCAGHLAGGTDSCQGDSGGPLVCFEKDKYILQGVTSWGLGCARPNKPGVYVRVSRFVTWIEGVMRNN
Chain of plasmin (P00747 97-580 partner limits assumed, species assumed): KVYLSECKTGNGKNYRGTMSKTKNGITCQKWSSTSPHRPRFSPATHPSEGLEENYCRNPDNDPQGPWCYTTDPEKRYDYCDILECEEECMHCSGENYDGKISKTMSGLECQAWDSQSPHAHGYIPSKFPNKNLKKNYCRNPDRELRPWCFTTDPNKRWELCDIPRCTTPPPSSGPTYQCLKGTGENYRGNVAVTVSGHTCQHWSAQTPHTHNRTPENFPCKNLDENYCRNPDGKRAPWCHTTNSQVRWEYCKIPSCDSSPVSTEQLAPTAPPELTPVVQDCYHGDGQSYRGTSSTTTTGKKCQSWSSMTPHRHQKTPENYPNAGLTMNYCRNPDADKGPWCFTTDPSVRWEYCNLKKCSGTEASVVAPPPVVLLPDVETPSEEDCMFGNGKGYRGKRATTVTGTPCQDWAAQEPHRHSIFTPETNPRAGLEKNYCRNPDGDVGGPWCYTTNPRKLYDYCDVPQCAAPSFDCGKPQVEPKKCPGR

[4] = molecular target: factor VIIa-tissue factor complex (Homo sapiens, UniProt P08709); settings: relative to TFPI-2; cited from earlier work
Chain of factor VIIa-tissue factor complex (P08709 213-466 limits assumed): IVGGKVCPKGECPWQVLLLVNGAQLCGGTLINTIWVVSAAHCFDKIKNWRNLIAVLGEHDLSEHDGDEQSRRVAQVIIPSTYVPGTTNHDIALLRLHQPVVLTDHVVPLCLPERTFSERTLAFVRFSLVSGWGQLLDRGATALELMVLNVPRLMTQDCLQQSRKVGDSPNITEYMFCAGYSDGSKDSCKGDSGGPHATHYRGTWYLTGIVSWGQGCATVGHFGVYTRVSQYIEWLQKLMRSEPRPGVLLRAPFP
Chain of factor VIIa-tissue factor complex (P08709 61-212 partner limits assumed): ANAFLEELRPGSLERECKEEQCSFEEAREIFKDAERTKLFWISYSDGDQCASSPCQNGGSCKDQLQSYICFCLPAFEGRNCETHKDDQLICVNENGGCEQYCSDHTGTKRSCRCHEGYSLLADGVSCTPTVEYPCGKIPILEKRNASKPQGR
Chain of factor VIIa-tissue factor complex (P13726 33-295 partner): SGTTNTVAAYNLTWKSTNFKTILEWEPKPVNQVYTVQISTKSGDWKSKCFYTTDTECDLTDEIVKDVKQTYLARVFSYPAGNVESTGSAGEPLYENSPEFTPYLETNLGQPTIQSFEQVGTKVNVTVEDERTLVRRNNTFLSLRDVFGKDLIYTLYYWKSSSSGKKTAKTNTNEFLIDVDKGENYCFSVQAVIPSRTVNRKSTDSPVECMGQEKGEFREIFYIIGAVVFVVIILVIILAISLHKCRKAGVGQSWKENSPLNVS

[5] = system: murine model of allergic asthma; experiment: Murine model of allergic asthma (OVA-immunized B6D2F1 mice); type: in vivo; settings: lateral tail vein, days 11-14; vs vehicle treated mice
Procedure: B6D2F1 mice were immunized with ovalbumin (OVA) adsorbed to alum (days 0 and 5) and received two OVA aerosols on day 12. A subgroup of mice were treated with hexahistidine-tagged KD1, delivered via the lateral tail vein, on days 11-14. Mice were sacrificed on day 15 for the enumeration and differentiation of cells in the airway and lung tissue compartments.

[6] = system: HT-1080 cells; experiment: Apoptosis detection by AO/EB staining; type: cell-based, human; settings: 1 μM, 48 h; approximately 5% in vehicle-treated cells
Procedure: (§1) All cell lines were maintained in Dulbecco's minimal essential medium (DMEM), supplemented with heat-inactivated 10% fetal bovine serum and penicillin-streptomycin. The cells were cultured either in 6- or 12-well plates at 37° C. in a humidified atmosphere containing 6% CO2. At confluence, the cells were treated with fresh medium containing either wild-type TFPI-2, R24K KD1, or R24Q KD1. Cells were treated in duplicate with purified proteins at concentrations ranging from 0.5 μM to 10 μM for different time intervals. One set were also treated with PBS to serve as a control. The Limulus Amebocyte Lysate (LAL) assay was performed on each protein preparation to determine the presence of any endotoxin/LPS, and only trace amounts of endotoxin (<0.5 ng/L) were detected in each protein preparation.
Cells were grown to confluence in two-chamber culture slides containing 2 ml medium. For AO/EB staining, the cultures were treated with recombinant proteins as described above. […] Cells were viewed within 30 minutes of staining and counted using a Zeiss axiocam epifluorescence microscope (Carl Zeiss, Inc., Thornwood, N.Y.) equipped with a triple cube filter [DAPI/FITC/RITC]. […] Experiments were performed in triplicate, and a minimum of 100 total live and apoptotic cells were counted in each treatment.

[7] = system: HT-1080 cells; experiment: FACS analysis of apoptosis with annexin V/propidium iodide; type: cell-based, human; settings: 1 μM, 48 hours
Procedure: as §1
To assess the degree of apoptosis between the various treatments, cells were grown to confluence in 6 well plates and treated with either proteins or vehicle as described earlier. For annexin V staining, approximately 1.2×10^6 cells were harvested with PBS containing 1 mM EDTA and washed twice gently with cold PBS. The cells were suspended in 100 μl of cold binding buffer (10 mM Hepes (pH 7.4), 140 mM NaCl, 2.5 mM CaCl2), and subsequently incubated at room temperature in the dark for 25 minutes with 5 μl of FITC-conjugated annexin V and 10 μl of propidium iodide (50 μg/ml stock). The cells were then washed in 500 μl of binding buffer to remove unbound reagents, centrifuged at 900×g for 5 minutes, and resuspended in 1 ml of cold binding buffer. The labeled cells were then analyzed using a FACSCALIBUR flow cytometer (Becton Dickinson, San Jose, Calif.) and the data analyzed using […] software.

[8] = system: HT-1080 cells; experiment: Western blot of cell extracts (Bax, Bcl-2, cleaved caspase-9, cleaved caspase-3); type: cell-based, human; settings: 1 μM, 48 hours; vs vehicle-treated cells
Procedure: Cell extracts were analyzed for the pro-apoptotic Bax, the anti-apoptotic Bcl-2, cleaved caspase-9 and cleaved caspase-3 by immunoblotting techniques. Approximately, 1×10^6 HT-1080 cells were grown to confluence in 6-well plates and treated with recombinant proteins and vehicle as described above. Both floating and adherent cells were harvested and washed twice with cold PBS. The cells were lysed by sonication in 500 μl of lysis buffer containing of 125 mM Tris-HCl (pH 6.8), 2% SDS, 10% glycerol, 50 mM sodium phosphate, 1 mM PMSF and protease inhibitor cocktail. The lysate was kept on ice for about 10 minutes, centrifuged for 15 minutes at 10,000×g at 4° C., and the supernatant recovered. The supernatants were boiled for 3 min and 50 μg of lysate protein subjected to SDS-PAGE in 4-20% polyacrylamide gradient gels. […] The nitrocellulose membranes were then probed with specific antibodies dissolved in fresh blocking buffer, and immunoreactive proteins were identified using HRP-conjugated secondary antibodies and a chemiluminescent reagent system essentially as described in Kempiah et al., Mol. Cancer, 6:20, 2007. Separate blots were treated with mouse monoclonal anti-α-tubulin antibody in order to verify equal loading of lysate proteins onto the gel.

VEGF [reference compound]
time to first visible tube ([1]; approximately 4 hours in the control): ≤ 3 h
number of tube formation ([1]; positive control, compared to control HUVECs): significant increase in number of tube formation

B1: R24Q TFPI-2: full-length TFPI-2 mutant, P1 arginine R24 to glutamine; inactive mutant (protein)
chain: DAAQEPTGNNAEICLLPLDYGPCQALLLRYYYDRYTQSCRQFLYGGCEGNANNFYTWEACDDACWRIEKVPKVCRLQVSVDDQCEGSTEKYFFNLSSMTCEKFFSGGCHRNRIENRFPDEATCMGFCAPKKIPSFCYSPKDEGLCSANVTRYYFNPRYRTCDAFTYTGCGGNDNNFVSREDCKRACAKALKKKKKMPKLRFASRIRKIRKKQF
inhibitory activity toward trypsin [2]: 5-10%
lost inhibitory activity towards trypsin [2]: > 90%
inhibitory activity toward plasmin [3]: 5-10%
lost inhibitory activity towards plasmin [3]: > 90%
inhibitory activity toward factor VIIa-tissue factor complex [4]: 5-10%
lost inhibitory activity towards factor VIIa-tissue factor complex [4]: > 90%

B2: KD1: the first Kunitz-type domain of human TFPI-2 (SEQ ID NO:2), recombinant, expressed in E. coli (protein, listed as Homo sapiens)
chain: DAAQEPTGNNAEICLLPLDYGPCRALLLRYYYDRYTQSCRQFLYGGCEGNANNFYTWEACDDACWRIEKVPKV
inhibition of angiogenesis (capillary-like tube formation) ([1]; HUVECs on matrix): does not inhibit angiogenesis
cells, macrophages and lymphocytes recoverable from the airways [5]: significant decrease in the number of airway macrophages and lymphocytes

B3: R24Q KD1: KD1 point mutant, arginine 24 to glutamine; lacks reactive site arginine/lysine residue (protein)
chain: DAAQEPTGNNAEICLLPLDYGPCQALLLRYYYDRYTQSCRQFLYGGCEGNANNFYTWEACDDACWRIEKVPKV
modifications: left off: small tags and cut ends
apoptotic cells (AO/EB staining) [6]: 18%
cells in a late apoptotic stage (annexin V and PI positive) ([7]; vehicle 4%): ~15%
early apoptotic cells (annexin V-FITC positive) ([7]; vehicle 16%): 55%
activated caspase 9 and activated caspase 3 (immunoblot) [8]: levels were significantly lower than that observed with TFPI-2 or R24K KD1
